± gives the half width of the 95% confidence interval.
Legend:
[1] = folding stability dG unfold from trypsin proteolysis; higher = more stable
Summary of the method: (§1)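 K50 was inferred by Bayesian fitting of sequencing counts obtained after protease digestion of designed mini-proteins. Unfolding free energy was derived by comparison with a sequence-predicted unfolded-state K50 and a shared folded-state K50, for each protease or both combined. The mini-proteins were under 80 residues, had no cysteine, were carried in a PA-tagged cDNA display construct, and were kept only if AlphaFold2 dimer inter-PAE exceeded 15.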

[2] = folding stability dG unfold (combined trypsin and chymotrypsin); higher = more stable
Summary of the method: as §1

[3] = folding stability dG unfold from chymotrypsin proteolysis; higher = more stable
Summary of the method: as §1

Sequence | folding stability dG unfold [1] | folding stability dG unfold [2] | folding stability dG unfold [3]
SAGGSAGGSAMRINIKLPGVETESVEVDPEKGMITARLKFPEGRKVEISFFPDGNVKIHPVSAGGSAGGSAG [r3_348_TrROS] | 1.14 ± 0.05 kcal/mol | 0.898 ± 0.11 kcal/mol | 0.751 ± 0.066 kcal/mol
SAGGEKITIEVDGKKVTITKNEDGTITITIEHNGKVIKTITLPKNLEKITELTLTFNGKTYTITIEPSAGGS [r16_452_TrROS_Hall] | 3.9 ± 0.13 kcal/mol | 4.97 ± 0.11 kcal/mol | 5.013 ± 0.048 kcal/mol
SAGGSAGGSAGGAEELAKELAEKLGLEKKKVLIKLPNGKVVEVTIEDLKKLNLKNAEIVPSAGGSAGGSAGG [r7_863_TrROS_Hall] | 0.906 ± 0.052 kcal/mol | 0.786 ± 0.18 kcal/mol | 0.492 ± 0.12 kcal/mol
SAGGKTIPIWFRVPPGMTPEEAADELADEIANELQQQNGKEIEIKIDDVEPNPNGWNIVRIKIEVDPSAGGS [r8_156_TrROS] | 0.176 ± 0.3 kcal/mol | 0.26 ± 0.32 kcal/mol | 0.433 ± 0.43 kcal/mol
SMKSKIEVKTVTFTFSPDDPLAKTPLEEIISEKAKKEGKKIEIPSYSYTSTDPAKGTKTYTFTVKIIKEESA [r9_107_JUSTAS] | 0.122 ± 0.16 kcal/mol | 0.534 ± 0.14 kcal/mol | 0.797 ± 0.21 kcal/mol
SGVLVVTHPDGSVSTVPFTHPDGLVVDISAGVDAPLYATVVRLLPDGTPEPLPVFEFDSIEDVLEALAEASA [r9_942_TrMRF] | 0.545 ± 0.016 kcal/mol | 1.61 ± 0.023 kcal/mol | 1.983 ± 0.014 kcal/mol
SAGGSAGGSAMLENARPFPIDLPTKYRLRIVLPDGRVLELEYDPKSGVPRLRVVPVEEALKRSAGGSAGGSA [r18_247_TrMRF] | 1.19 ± 0.012 kcal/mol | 1.46 ± 0.036 kcal/mol | 1.59 ± 0.033 kcal/mol
SAGGSAGGSAGKLKIKKVKVVKTETFTLPNGYTIKVSYVEVEVDGKKYLFKSVEIYPKKESAGGSAGGSAGG [r11_129_TrROS_Hall] | 2.02 ± 0.1 kcal/mol | 2.85 ± 0.15 kcal/mol | 3.09 ± 0.033 kcal/mol
SDIEIERDPNMIRIEHTYPFDNYRVKISLYVMVGPDGQFMLMIPIEIELPPPPPTPEKDPNGKEKWKPDASA [r9_456_TrROS] | 2.67 ± 0.21 kcal/mol | 3.85 ± 0.53 kcal/mol | 4.27 ± 0.21 kcal/mol
SAGGSAGGSPVLIPVKTPEEIKKFLEKASSDAKFKVFNNKGEWKEVSKNEISVTPEEQFILVYSAGGSAGGS [r12_907_TrMRF] | 0.437 ± 0.048 kcal/mol | 0.578 ± 0.068 kcal/mol | 0.662 ± 0.14 kcal/mol
SAGGSAGGSAGGLEIVKEVIKNPLKNEPVEVLILIEKKEEPIEKTDLFEIPVKITIIPLSAGGSAGGSAGGS [r10_459_JUSTAS] | 1.29 ± 0.11 kcal/mol | 0.812 ± 0.19 kcal/mol | 0.152 ± 0.16 kcal/mol
SAGGSAGGSAGGIGEGTPIERLIEGKPIPFYVDESTGKAYYTLPEDKKIETTIEDPEKVSAGGSAGGSAGGS [r10_1185_TrMRF] | -0.377 ± 0.19 kcal/mol | 0.202 ± 0.15 kcal/mol | 0.442 ± 0.22 kcal/mol
SMIIKPGMSLEEVLNKIKELLKKGEKYKITVINKETGKVYEFEIDVKTKKIKVKEVTLENGEVIIKIEKVSA [r9_1059_TrROS_Hall] | 1.93 ± 0.046 kcal/mol | 3.05 ± 0.12 kcal/mol | 3.54 ± 0.07 kcal/mol
SAKMVVLKAYFKGDGDEIKEIADAIDFPYTIEKIPDYPDYYIATFVFPTEEKAPEWEKALKEKGYIVEGSAG [r14_745_TrMRF] | 1.88 ± 0.04 kcal/mol | 2.25 ± 0.049 kcal/mol | 2.48 ± 0.037 kcal/mol
SAGGSAGMELVPLPSPQLVPLTVETTPLPETGTTLVTETSPLGERTVTRVDPAGNVTTLSSTSTSTSAGGSA [r15_790_JUSTAS] | -0.389 ± 0.033 kcal/mol | -0.226 ± 0.12 kcal/mol | -0.192 ± 0.12 kcal/mol
SAGMTEVAKEIADTLAEQFPPGYKIDDIKVQPLPDNMFRVPITIKRRDPNGKPRGPRQIEIWIPPEQFSAGG [r19_28_TrROS] | 0.755 ± 0.053 kcal/mol | 0.532 ± 0.11 kcal/mol | 0.21 ± 0.17 kcal/mol
SAGGSAGGSMKITVEKDENGNYRVTVTLTVNGKEIKLTVTVPKNTTPEEVKKKAEELAKELLKSAGGSAGGS [r12_69_TrROS_Hall] | 4.39 ± 0.55 kcal/mol | > 6 kcal/mol | 5.13 ± 0.44 kcal/mol
SAGGSAGGSAGGKPKKVILIEADTLEEALAAAEALAPPGAKVTVTLVERDGKLYLLVTVDSAGGSAGGSAGG [r7_877_TrROS_Hall] | 2.16 ± 0.045 kcal/mol | 3.351 ± 0.028 kcal/mol | 3.75 ± 0.046 kcal/mol
SAGGSAGGSAGPIIPPNFEVVDVFETETSYYILVKNPETGRYYVARYDPLTGKIEVFEVSSAGGSAGGSAGG [r11_896_TrMRF] | 3.46 ± 0.1 kcal/mol | 4.52 ± 0.1 kcal/mol | 4.75 ± 0.065 kcal/mol
SAGGKKNKPKPKVKVKILSVTANPDPNTPGLLSVSVPVLIESDDEEFALALAKELAKLPNVKVVVLGGSAGG [r13_606_TrMRF] | 1.34 ± 0.023 kcal/mol | 1.42 ± 0.048 kcal/mol | 1.42 ± 0.037 kcal/mol
SAGGSAGGSAGGMTTVTTLETRPLPDGTTVTREVVTDENGTVVSTTVSRVSPEGVVTAESAGGSAGGSAGGS [r10_1014_JUSTAS] | -0.0113 ± 0.05 kcal/mol | 0.623 ± 0.055 kcal/mol | 0.97 ± 0.025 kcal/mol

Sequence | folding stability dG unfold [1] | folding stability dG unfold [2] | folding stability dG unfold [3]
SMSEVVEESEFNGEKVITIKVTLPDGTPVTVTITLSPEGEGTVTTVPPSSSTSTTTTVPVSQVDEVLEALSA [r9_91_JUSTAS] | 1.95 ± 0.061 kcal/mol | 1.61 ± 0.074 kcal/mol | 1.4 ± 0.031 kcal/mol
SAAKITEVDVEVGGDTITTTFRLEIDGKPYLAVTRLEPLTDPDGNPRFIAVTELYDEDGNLVATLPSDLSAG [r14_465_TrMRF] | 1.59 ± 0.032 kcal/mol | 2.06 ± 0.059 kcal/mol | 2.325 ± 0.018 kcal/mol
SAMEKVYIKVKFEVEGDPNGKEKKTIELIVENPDPNIGKEKLLEIAKEAVEKFAKENGYKVKISEVEIGSAG [r14_190_TrMRF] | 2.76 ± 0.29 kcal/mol | 4.29 ± 0.39 kcal/mol | 4.22 ± 0.18 kcal/mol
SAGGSAGGSAGTKTITLPNGLTLTIKPDEPVTITLVKVDPETNEIVEEKTITVYVKEDDLSAGGSAGGSAGG [r11_497_TrROS_Hall] | 1.08 ± 0.021 kcal/mol | 1.2 ± 0.076 kcal/mol | 1.19 ± 0.061 kcal/mol
SAGGSAGGSAGGWVIRVTIKHPNGKKRTIMIPMPPDNIEEVAKNLMPQGYEIKEPEIFPGSAGGSAGGSAGG [r7_159_TrROS] | 0.295 ± 0.12 kcal/mol | 0.813 ± 0.26 kcal/mol | 0.902 ± 0.36 kcal/mol
SAIVLVVADDSPEEAVERARRFAATLRERLVREGYPDADVPIVVEVRAVPPPVPVPVRLPDGDEVVPAPSAG [r14_475_TrMRF] | 0.647 ± 0.1 kcal/mol | 1.32 ± 0.064 kcal/mol | 1.7 ± 0.044 kcal/mol
SAGGSAGGSGLPIVVQEDGTLVLRREGDGTAAFDVVPLEEFERLPEEFLESLPASALPDPLPLSAGGSAGGS [r12_793_JUSTAS] | -0.428 ± 0.2 kcal/mol | 0.882 ± 0.1 kcal/mol | 1.41 ± 0.11 kcal/mol
SKKVTIMIMIRRRDPEDGKYRPIPPEFILEMVRRARKKGKKVKITFMNPDNPWAKRLAKRAKEEGIKIEWSA [r9_468_TrROS] | 2 ± 0.05 kcal/mol | 2.1 ± 0.11 kcal/mol | 2.1 ± 0.14 kcal/mol
SAGGSAGGSAGMVKLRFEVKFKIKLLGEGETNEVVEVDVKVEFEVTLPPFKVRPDGSLLESAGGSAGGSAGG [r11_558_TrMRF] | 3.2 ± 0.24 kcal/mol | 4.03 ± 0.21 kcal/mol | 4.39 ± 0.15 kcal/mol
SAGGKKKPKIRIKVEIDGKTVEVEVESPEELVEALKELGFEVEVVEVTEKTVVIKLKDGKLIRIEKESAGGS [r8_365_TrROS_Hall] | 1.91 ± 0.072 kcal/mol | 2.02 ± 0.047 kcal/mol | 2.06 ± 0.026 kcal/mol
SAGGSAGGSGSMSTPVTEEITLTLTRTTEDGTEVVITIKVKVVKDPTSDVVTVTEVLSETVEPSAGGSAGGS [r12_358_JUSTAS] | 2.18 ± 0.051 kcal/mol | 2.37 ± 0.099 kcal/mol | 2.54 ± 0.039 kcal/mol
SAGGSAGGSDPTAPVITTVPFPSGAVLTITTYPDSVTITYPSPGTTYTVPASAPIPITYQPALSAGGSAGGS [r12_227_JUSTAS] | 0.674 ± 0.015 kcal/mol | 0.488 ± 0.067 kcal/mol | 0.0869 ± 0.12 kcal/mol
SMKSEEEKKAKELKKQKPVIVFDKETGKITVYDAKTGKKIEIEVKVKKTKDGKVEPLTEEELKKLLKKLASA [r9_1056_TrROS_Hall] | 1.63 ± 0.077 kcal/mol | 1.12 ± 0.38 kcal/mol | 1.19 ± 0.28 kcal/mol
SAGGSAGGSGSVEFETDLKDPNIRKAIEEALKEGKKTAVIPFPDGAEGRIVEVEGDKVRVEISSAGGSAGGS [r12_334_TrMRF] | 0.0322 ± 0.15 kcal/mol | 0.838 ± 0.12 kcal/mol | 1.29 ± 0.099 kcal/mol
SAGGSAGGSGPVLLVRVRPDGTREILDVLPPDEPVENLPAGEFREFRLIPTESLEDALRKALASAGGSAGGS [r12_452_TrMRF] | -0.44 ± 0.54 kcal/mol | -0.00342 ± 0.21 kcal/mol | 0.304 ± 0.37 kcal/mol
SAGKPEWKLVETIEVTIEVPPGVTVEEIEKKLLEALKEKGIKEVKIEVTYDKENKTITVRVEVLVKKEKSAG [r5_924_TrROS_Hall] | 1.27 ± 0.13 kcal/mol | 1.66 ± 0.26 kcal/mol | 1.92 ± 0.11 kcal/mol
SAGMVEVTVTIIPKKVKDKWVNEAVVSITVPGGPTSTITMPFGSKEEAIKYLKEKGLEVSEENVSVEIESAG [r5_233_JUSTAS] | 2.31 ± 0.12 kcal/mol | 3.23 ± 0.097 kcal/mol | 3.395 ± 0.028 kcal/mol
SAGGMVTIELREVSEEEALKLAEELPPNTLLIPFPFGNLVLPVRVPDDPEVREKVAEEIRKFLEALPSAGGS [r16_311_TrMRF] | 1.13 ± 0.023 kcal/mol | 0.67 ± 0.13 kcal/mol | 0.0455 ± 0.19 kcal/mol
SAGGSAGGSAPKPIEITFPAKSLEEAKIAAEEIKRAFEELEDVKVEVEYDPETGTVTVRVYGSAGGSAGGSA [r18_368_TrMRF] | 2.88 ± 0.12 kcal/mol | 3.38 ± 0.088 kcal/mol | 3.58 ± 0.07 kcal/mol
SAGGMVTVTDPNGVKHEYKLKVKITFEKPDGKPVTVEIEFDNVTVEDIVKIAKEIESKGYKLVSIEISSAGG [r13_227_TrMRF] | 3.73 ± 0.34 kcal/mol | 4.74 ± 0.22 kcal/mol | 4.91 ± 0.15 kcal/mol
SAGGSAGGSAGGRFEVLGVEPLPGNWVRVRVRYPGLGREATFLVRVSSLPLPPVDLDRFDSAGGSAGGSAGG [r11_986_TrMRF] | 1.82 ± 0.037 kcal/mol | 2.71 ± 0.083 kcal/mol | 3.11 ± 0.046 kcal/mol
